Test results reported in patent US20060234941A1 (US Dept. of Health and Human Services, published 2006).

T1: H-2Db MHC class I molecule on RMA-S cells (mouse, UniProt P01887 21-119; P01899 25-362)
T1 construct: MHC class I stabilised on RMA-S (H-2b) cells by added peptide; detected with anti-H-2Db monoclonal antibody clone 28-14-8; also called H-2Db molecules
T1 sequence (MHC heavy, looked up): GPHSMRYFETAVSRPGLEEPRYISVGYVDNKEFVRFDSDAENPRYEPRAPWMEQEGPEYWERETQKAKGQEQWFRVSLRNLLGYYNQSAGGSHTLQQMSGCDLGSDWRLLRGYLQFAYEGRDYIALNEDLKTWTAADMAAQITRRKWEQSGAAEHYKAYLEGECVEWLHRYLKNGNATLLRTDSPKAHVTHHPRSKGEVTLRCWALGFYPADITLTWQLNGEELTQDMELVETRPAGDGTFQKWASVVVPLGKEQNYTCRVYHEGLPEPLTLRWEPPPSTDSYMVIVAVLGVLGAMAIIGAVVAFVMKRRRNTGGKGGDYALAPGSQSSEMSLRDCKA
T1 sequence (b2m, looked up): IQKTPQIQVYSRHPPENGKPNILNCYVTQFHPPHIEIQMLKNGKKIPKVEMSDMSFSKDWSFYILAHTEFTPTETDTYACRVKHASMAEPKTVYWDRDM


Key:
[1] = target: T1, H-2Db MHC class I molecule on RMA-S …; assay: RMA-S MHC class I stabilisation assay, flow cytometry with anti-H-2Db antibody
Experimental: To test the binding affinity of these peptides to H-2Db, an RMA-S binding experiment was performed, and the FI value in the assay was measured. […] The RMA-Binding assays were performed as previously described (Lyman et al., J. Virol. 76:3125-3134, 2002). Briefly, synthetic peptides were dissolved in dimethyl sulfoxide before dilution. For MHC-binding assays, RMA-S cells were loaded with various peptides for 16 to 18 h at 37° C. Levels of surface class I molecules were assessed by flow cytometric analysis (FACScan; Becton Dickinson) using mouse monoclonal antibodies specific for H-2Db (Southern Biotech, clone No. 28-14-8). FI=Fluorescence after peptides stimulation/ Fluorescence without peptide-1.

[2] = target: T2, HLA-A2 on the surface of T2 cells (human); assay: T2 HLA-A2 stabilisation assay, flow cytometry with W6/32
T2 construct: Stabilised HLA-A2 detected with pan HLA class I monoclonal antibody W6/32; also called MHC molecules
Experimental: To test the binding affinity of the predicted human peptides for HLA-A2, three exemplary peptides, designated KDR505 (SEQ ID NO:6), KDR775 (SEQ ID NO:7) and KDR1093 (SEQ ID NO:5) were synthesized and evaluated in a T2 binding assay as described by Cerundolo et al., Nature 342:449-452, 1990. In brief, T2 cells were cultured in RPMI1640 with 10% FBS, and grown in 5% CO₂ at 37° C. Cells (1×10⁵) in a volume of 100 μl of RPMI 1640 (serum free) were aliquoted into 96-well, U-bottomed plates and incubated with peptide at a final concentration of 0.1-100 μM plus 5 nM β₂ microglobulin (Cymbus Biotechnology Ltd., Chandlers Ford, Hampshire, United Kingdom) for 18 h at 37° C. in 5% CO₂. The level of stabilized HLA-A2 on the surface of the T2 cells was detected using the pan HLA class I monoclonal antibody W6/32 (European Collection of Animal Cell Cultures (ECACC), Porton Down, Salisbury) that recognizes stabilized HLA-A2 complexes. Samples are fixed in 1% paraformaldehyde in PBS prior to analysis and analyzed on a Becton Dickinson FACSCAN®.

Binder | binding result [1] | peptide concentration at FI=0.5 [1] [µM] | binding result [2]
LLGRNSFEV (peptide, UniProt P04637 264-272, looked up, range 264-272; also called wild type P53 264-272) [Human P53 264-272 peptide] | no binding (tested: 200 µM) | > 200 | –
VLLWEIFSL [KDR1093 (human VEGFR-2/KDR peptide VLLWEIFSL)] | – | – | binds
RAHYNIVTF (peptide, UniProt P03129 49-57, looked up, range 49-57; also called HPV E7 49-57) [Human Papilloma Virus (HPV)16E7 49-57 peptide] | – | ~12.5 | –
AMFFWLLLV [KDR775 (human VEGFR-2/KDR peptide AMFFWLLLV)] | – | – | binds
VILTNPISM (Synthetic peptide (Sigma); also called VEGFR-2/KDR2) [KDR2 (murine VEGFR-2/KDR peptide VILTNPISM)] | – | ~24 | –
ALIEGKNKT [KDR505 (human VEGFR-2/KDR peptide ALIEGKNKT)] | – | – | binds
FSNSTNDILI (Synthetic peptide (Sigma); also called VEGFR-2/KDR3) [KDR3 (murine VEGFR-2/KDR peptide FSNSTNDILI)] | – | ~3 | –
